Experimental data published in paper PMC10444022, “SARS-CoV-2 hijacks neutralizing dimeric IgA for nasal infection and injury in Syrian hamsters^1” (Emerging Microbes & Infections, 2023).

B1: B8-dIgA1 (antibody, V domains shown)
VH: EVQLVQSGAEVKKPGSSVKVSCKASGGTFSNYGISWVRQAPGQGLEWMGRILPTFGTANSAQKFQGRVTITADESTGTAYMELRSLRSEDTAVYYCAKEGLAFLGYGMDVWGQGTTVTVSS
VL: EIVLTQSPGTLSLSPGERATLSCRASQSVSSYLAWYQQKPGQAPRLLIYDASNRATGIPARFIGSGSGTDFTLTISSLEPEDFAVYFCQQRSNWPLTFGGGTKVEIK
B2: B8-dIgA2 (antibody, V domains shown)
VH: EVQLVQSGAEVKKPGSSVKVSCKASGGTFSNYGISWVRQAPGQGLEWMGRILPTFGTANSAQKFQGRVTITADESTGTAYMELRSLRSEDTAVYYCAKEGLAFLGYGMDVWGQGTTVTVSS
VL: EIVLTQSPGTLSLSPGERATLSCRASQSVSSYLAWYQQKPGQAPRLLIYDASNRATGIPARFIGSGSGTDFTLTISSLEPEDFAVYFCQQRSNWPLTFGGGTKVEIK
B3: B8-mIgA1 (antibody, V domains shown)
VH: EVQLVQSGAEVKKPGSSVKVSCKASGGTFSNYGISWVRQAPGQGLEWMGRILPTFGTANSAQKFQGRVTITADESTGTAYMELRSLRSEDTAVYYCAKEGLAFLGYGMDVWGQGTTVTVSS
VL: EIVLTQSPGTLSLSPGERATLSCRASQSVSSYLAWYQQKPGQAPRLLIYDASNRATGIPARFIGSGSGTDFTLTISSLEPEDFAVYFCQQRSNWPLTFGGGTKVEIK
B4: B8-mIgA2 (antibody, V domains shown)
VH: EVQLVQSGAEVKKPGSSVKVSCKASGGTFSNYGISWVRQAPGQGLEWMGRILPTFGTANSAQKFQGRVTITADESTGTAYMELRSLRSEDTAVYYCAKEGLAFLGYGMDVWGQGTTVTVSS
VL: EIVLTQSPGTLSLSPGERATLSCRASQSVSSYLAWYQQKPGQAPRLLIYDASNRATGIPARFIGSGSGTDFTLTISSLEPEDFAVYFCQQRSNWPLTFGGGTKVEIK

The binders below were run against recombinant SARS-CoV-2 RBD (Sino Biological) (SARS-CoV-2, UniProt P0DTC2) (assay: cell-based or functional assay).
With B1 the “IC50, neutralisation of SARS-CoV-2 pseudovirus in HEK293T-ACE2 cells” value (“IC50, neutralisation” below) was 0.0048 µg/mL and the “IC90, neutralisation of SARS-CoV-2 pseudovirus in HEK293T-ACE2 cells” value (shortened to “IC90, neutralisation”) was 0.033 µg/mL.
With B2 the “IC50, neutralisation” value was 0.012 µg/mL and the “IC90, neutralisation” value was 0.021 µg/mL.
B3 was tested, and the “IC50, neutralisation” value was 0.012 µg/mL and the “IC90, neutralisation” value was 0.052 µg/mL.
B4 was tested, and the “IC50, neutralisation” value was 0.0057 µg/mL and the “IC90, neutralisation” value was 0.014 µg/mL.
